Measured values taken from PMC4601081, “A Single α Helix Drives Extensive Remodeling of the Proteasome Lid and Completion of Regulatory Particle Assembly” (Cell, 2015).
One block for each binder: values may come before it. Ends that are not written are not given here.

B3: Rpn8, subunit of LP2 and lid purified from yeast (natural protein, S. cerevisiae, UniProt Q08723 1-338, looked up)
chain: MSLQHEKVTIAPLVLLSALDHYERTQTKENKRCVGVILGDANSSTIRVTNSFALPFEEDEKNSDVWFLDHNYIENMNEMCKKINAKEKLIGWYHSGPKLRASDLKINELFKKYTQNNPLLLIVDVKQQGVGLPTDAYVAIEQVKDDGTSTEKTFLHLPCTIEAEEAEEIGVEHLLRDVRDQAAGGLSIRLTNQLKSLKGLQSKLKDVVEYLDKVINKELPINHTILGKLQDVFNLLPNLGTPDDDEIDVENHDRINISNNLQKALTVKTNDELMVIYISNLVRSIIAFDDLIENKIQNKKIQEQRVKDKQSKVSDDSESESGDKEATAPLIQRKNKKN
notes: Rpn8, S. cerevisiae proteasome lid subunit; source: purified from S. cerevisiae as part of LP2 or lid

How the values were obtained:
Settings in all cases: both partners purified
[1] = target: T1, lid particle 2 (LP2), recombinant (S. cerevisiae, UniProt P40016 1-523; Q12250 1-445; Q12377 1-434; Q06103 1-429; Q08723 1-338; Q04062 …); test: fluorescence polarisation; fluorescence anisotropy: 1 uM fluorescein-labelled N12pep in Lid Buffer alone, with 1 uM LP2, 5 uM Rpn12, or both; 25°C 20 min; excitation 485 nm, emission 513-528 nm
T1 construct: Rpn3, S. cerevisiae proteasome lid subunit; Rpn5, S. cerevisiae proteasome lid subunit; Rpn6, S. cerevisiae proteasome lid subunit; Rpn7, S. cerevisiae proteasome lid subunit; Rpn8, S. cerevisiae proteasome lid subunit; Rpn9, S. cerevisiae proteasome lid subunit; Rpn11, S. cerevisiae proteasome lid subunit; Sem1, S. cerevisiae proteasome lid subunit; legends speak of 'untagged LP2'; operons as in …

[2] = target: T2, Rpn3, subunit of LP2 and lid purified from yeast (S. cerevisiae, UniProt P40016 1-523); test: cross-linking; QCLMS of LP2 purified from yeast as a whole complex: BS3-d0 / BS3-d4 at 1:200 protein to cross-linker, Buffer HA, 30°C 1 h; monomeric cross-linked complex cut from SDS-PAGE, trypsin, LC-MS/MS
T2 construct: Rpn3, S. cerevisiae proteasome lid subunit; source: purified from S. cerevisiae as part of LP2 or lid
T2 sequence (looked up): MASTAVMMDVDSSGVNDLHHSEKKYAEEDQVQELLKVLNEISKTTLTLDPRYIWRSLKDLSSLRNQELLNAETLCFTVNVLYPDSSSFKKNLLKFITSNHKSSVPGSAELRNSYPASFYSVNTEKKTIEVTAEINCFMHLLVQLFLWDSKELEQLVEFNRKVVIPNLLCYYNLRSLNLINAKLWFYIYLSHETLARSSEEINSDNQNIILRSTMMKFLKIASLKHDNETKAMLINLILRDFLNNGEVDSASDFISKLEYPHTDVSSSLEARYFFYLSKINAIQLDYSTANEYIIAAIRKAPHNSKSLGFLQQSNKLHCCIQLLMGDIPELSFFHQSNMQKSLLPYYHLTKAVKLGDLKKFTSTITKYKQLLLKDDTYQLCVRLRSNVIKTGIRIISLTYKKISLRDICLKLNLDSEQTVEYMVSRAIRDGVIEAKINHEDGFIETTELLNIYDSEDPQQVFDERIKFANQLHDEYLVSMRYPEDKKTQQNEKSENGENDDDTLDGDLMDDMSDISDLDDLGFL

[3] = target: T3, Rpn9, subunit of LP2 and lid purified from yeast (S. cerevisiae, UniProt Q04062 1-393); test: as above
T3 construct: Rpn9, S. cerevisiae proteasome lid subunit; source: purified from S. cerevisiae as part of LP2 or lid
T3 sequence (looked up): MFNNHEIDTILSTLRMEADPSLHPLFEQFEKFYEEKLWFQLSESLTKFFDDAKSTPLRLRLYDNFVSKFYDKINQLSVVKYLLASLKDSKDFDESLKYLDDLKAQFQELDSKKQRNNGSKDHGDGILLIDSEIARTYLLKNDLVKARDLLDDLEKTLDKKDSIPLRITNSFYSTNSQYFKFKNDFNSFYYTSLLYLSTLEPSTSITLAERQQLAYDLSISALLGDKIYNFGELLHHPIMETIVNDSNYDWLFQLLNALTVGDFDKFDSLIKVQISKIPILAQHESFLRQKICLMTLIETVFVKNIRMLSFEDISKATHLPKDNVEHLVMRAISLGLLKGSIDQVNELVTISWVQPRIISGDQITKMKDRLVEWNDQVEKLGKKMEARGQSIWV

[4] = target: T4, Rpn6, subunit of LP2 and lid purified from yeast (S. cerevisiae, UniProt Q12377 1-434); test: as above
T4 construct: Rpn6, S. cerevisiae proteasome lid subunit; Also stands as the whole protein for the region row on the E. coli truncations; source: purified from S. cerevisiae as part of LP2 or lid
T4 sequence (looked up): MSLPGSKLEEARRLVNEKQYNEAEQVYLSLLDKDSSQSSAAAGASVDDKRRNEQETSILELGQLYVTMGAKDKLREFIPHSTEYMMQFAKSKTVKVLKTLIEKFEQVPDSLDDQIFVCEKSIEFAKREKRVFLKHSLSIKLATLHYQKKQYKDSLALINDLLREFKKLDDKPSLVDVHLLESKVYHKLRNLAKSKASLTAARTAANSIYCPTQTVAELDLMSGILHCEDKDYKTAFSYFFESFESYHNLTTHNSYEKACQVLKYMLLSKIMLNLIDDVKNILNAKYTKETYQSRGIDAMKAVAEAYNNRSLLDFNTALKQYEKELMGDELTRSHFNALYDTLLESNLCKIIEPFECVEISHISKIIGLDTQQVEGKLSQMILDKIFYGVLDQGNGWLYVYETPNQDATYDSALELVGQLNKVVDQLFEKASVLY

[5] = target: T5, Rpn5, subunit of LP2 and lid purified from yeast (S. cerevisiae, UniProt Q12250 1-445); test: cross-linking; QCLMS of lid purified from yeast as a whole complex: BS3-d0 / BS3-d4 at 1:200 protein to cross-linker, Buffer HA, 30°C 1 h; monomeric cross-linked complex cut from SDS-PAGE, trypsin, LC-MS/MS
T5 construct: Rpn5, S. cerevisiae proteasome lid subunit; source: purified from S. cerevisiae as part of LP2 or lid
T5 sequence (looked up): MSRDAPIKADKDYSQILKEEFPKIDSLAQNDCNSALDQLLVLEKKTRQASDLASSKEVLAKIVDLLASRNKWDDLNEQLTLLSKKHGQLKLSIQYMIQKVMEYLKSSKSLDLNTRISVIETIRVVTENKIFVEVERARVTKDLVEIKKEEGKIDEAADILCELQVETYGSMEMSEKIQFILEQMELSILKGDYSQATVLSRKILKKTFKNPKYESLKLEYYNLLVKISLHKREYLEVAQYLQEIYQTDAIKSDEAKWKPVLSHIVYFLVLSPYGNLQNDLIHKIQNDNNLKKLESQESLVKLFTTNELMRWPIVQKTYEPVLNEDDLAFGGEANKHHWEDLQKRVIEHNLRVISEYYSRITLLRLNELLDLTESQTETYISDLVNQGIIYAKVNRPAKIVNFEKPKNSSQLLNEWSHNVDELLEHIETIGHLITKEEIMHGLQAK

[6] = target: T1, lid particle 2 (LP2), recombinant; test: negative-stain EM; purified recombinant LP2 treated with an equimolar concentration of recombinant Rpn12; 2D class averages
[7] = target: B3; test: cross-linking; QCLMS of LP2 purified from yeast as a whole complex: BS3-d0 / BS3-d4 at 1:200 protein to cross-linker, Buffer HA, 30°C 1 h; monomeric cross-linked complex cut from SDS-PAGE, trypsin, LC-MS/MS
[8] = target: T5, Rpn5, subunit of LP2 and lid purified …; test: as above

T1 sequence (O94742 whole entry, chain 8 of 3, one chain of several, further chain): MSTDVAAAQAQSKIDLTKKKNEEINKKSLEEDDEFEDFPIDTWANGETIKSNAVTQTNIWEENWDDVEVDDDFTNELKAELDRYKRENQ

binding result [1]: binds
B1: N12pep, fluorescently labeled peptide of the Rpn12 C-terminal helix (peptide)
peptide: DQKTNIIEKAMDYAISIENIK(5,6‑carboxyfluorescein)
notes: Rpn12, S. cerevisiae, C-terminal helix; added lysine that carries 5,6-carboxyfluorescein; also called Rpn12 C-terminal helix peptide; source: synthetic peptide (Elim Biopharmaceuticals)

binding result [2]: binds
B2: Rpn7, subunit of LP2 and lid purified from yeast (natural protein, S. cerevisiae, UniProt Q06103 1-429, looked up)
chain: MVDVEEKSQEVEYVDPTVNRVPNYEVSEKAFLLTQSKVSIEQRKEAAEFVLAKIKEEEMAPYYKYLCEEYLVNNGQSDLEHDEKSDSLNEWIKFDQELYNELCKKNESKIKELNEKIQKLEEDDEGELEQAQAWINLGEYYAQIGDKDNAEKTLGKSLSKAISTGAKIDVMLTIARLGFFYNDQLYVKEKLEAVNSMIEKGGDWERRNRYKTYYGIHCLAVRNFKEAAKLLVDSLATFTSIELTSYESIATYASVTGLFTLERTDLKSKVIDSPELLSLISTTAALQSISSLTISLYASDYASYFPYLLETYANVLIPCKYLNRHADFFVREMRRKVYAQLLESYKTLSLKSMASAFGVSVAFLDNDLGKFIPNKQLNCVIDRVNGIVETNRPDNKNAQYHLLVKQGDGLLTKLQKYGAAVRLTGSDRV
notes: Rpn7, S. cerevisiae proteasome lid subunit; source: purified from S. cerevisiae as part of LP2 or lid

Binder: B3
binding result [3]: binds | binding result [4]: binds | binding result [5]: binds

binding result [6]: binds
B4: Rpn12, recombinant, full-length (natural protein, S. cerevisiae, UniProt P32496 1-274, looked up)
chain: MPSLAELTKSLSIAFENGDYAACEKLLPPIKIELIKNNLLIPDLSIQNDIYLNDLMITKRILEVGALASIQTFNFDSFENYFNQLKPYYFSNNHKLSESDKKSKLISLYLLNLLSQNNTTKFHSELQYLDKHIKNLEDDSLLSYPIKLDRWLMEGSYQKAWDLLQSGSQNISEFDSFTDILKSAIRDEIAKNTELSYDFLPLSNIKALLFFNNEKETEKFALERNWPIVNSKVYFNNQSKEKADYEDEMMHEEDQKTNIIEKAMDYAISIENIV
notes: Rpn12, S. cerevisiae proteasome lid subunit; also called recombinant Rpn12; purified Rpn12

binding result [7]: binds | binding result [8]: binds
B5: Rpn11, subunit of LP2 and lid purified from yeast (natural protein, S. cerevisiae, UniProt P43588 1-306, looked up)
chain: MERLQRLMMNSKVGSADTGRDDTKETVYISSIALLKMLKHGRAGVPMEVMGLMLGEFVDDYTVNVVDVFAMPQSGTGVSVEAVDDVFQAKMMDMLKQTGRDQMVVGWYHSHPGFGCWLSSVDVNTQKSFEQLNSRAVAVVVDPIQSVKGKVVIDAFRLIDTGALINNLEPRQTTSNTGLLNKANIQALIHGLNRHYYSLNIDYHKTAKETKMLMNLHKEQWQSGLKMYDYEEKEESNLAATKSMVKIAEQYSKRIEEEKELTEEELKTRYVGRQDPKKHLSETADETLENNIVSVLTAGVNSVAIK
notes: Rpn11, S. cerevisiae proteasome lid subunit; source: purified from S. cerevisiae as part of LP2 or lid
